The data set is described as follows: soluble on expression in E. coli; label from the status in PepcDB or PDB records.
“GADGVGNASGDWHCDSTWSEGHVTTTSTRTWVLPTYNNHLYKRLGESLQSNTYNGFSTPWGYFDFNRFHCHFSPRDWQRLINNNWGMRPKAMRVKIFNIQVKEVTTSNGETTVANNLTSTVQIFADSSYELPYVMDAGQEGSLPPFPNDVFMVPQYGYCGLVTGNTSQQQTDRNAFYCLEYFPSQMLRTGNNFEITYSFEKVPFHSMYAHSQSLDRLMNPLIDQYLWGLQSTTTGTTLNAGTATTNFTKLRPTNFSNFKKNWLPGPSIKQQGFSKTANQNYKIPATGSDSLIKYETHSTLDGRWSALTPGPPMATAGPADSKFSNSQLIFAGPKQNGNTATVPGTLIFTSEEELAATNATDTDMWGNLPGGDQSNSNLPTVDRLTALGAVPGMVWQNRDIYYQGPIWAKIPHTDGHFHPSPLIGGFGLKHPPPQIFIKNTPVPANPATTFSSTPVNSFITQYSTGQVSVQIDWEIQKERSKRWNPEVQFTSNYGQQNSLLWAPDAAGKYTEPRAIGTRYLTHHL”: the “soluble on expression in E. coli” value is reported as “soluble”.

As to “MGSDKIHHHHHHVRNYTYRYLNTIALPMETVRLISRINEYKGKQDLYKQQAPQVLDTLRDVAVIQSTKASNAIEGIVVTESRLHTIMSKSADPADRSEAEIAGYRDVLNLIHASARDIPINANVLLQLHKELYKFVPVEGGRWKNVDNEISESFPDGTRRTRFVPVPAFETPASVQALCDSLRERRQQEDVDPLILTSLFVLDFLSIHPFNDGNGRMSRLLTLLLLYQEGFEVGRYISLEKIVESRKEDYYESLRLSSIHWHQNQQDPFPWVNYLLSTILAAYKELEDRVGLITTGNQNKAGRIRQFVESRITPFTKADVRNACPDVSEATINRLLRELRDEGLIKPSGRGRGAKWIKR”, the “soluble on expression in E. coli” value is given as “not soluble”.

In the case of “MSLPITLDKKLPAVDILKSENIFVMDDKRAIHQDIRPMSILILNLMPTKVATETQLLRLLANTPLQLSVDFLYMTSHHSKTTQAEHMKTFYKTFKDIKDNYYDGLIITGAPVETMPFEKVDYWEELCQVFQWSKTHVYSTLHLCWGAQAGLYYRYSVDKVQMTDKLSGIYLQKVNEQLSPLMRGFDDCFLSPHSRYTEVLLKDINNKTNLEILASGEKVGLSILASRDMREVYSFGHLEYDRETLDNEYKRDLKAGKSPKIPENYYQDDDVTTHPIMRWNLAAATFFSNWINYAVYQETPYRLEELEKDISFYGYLEGHHHHHH”, the “soluble on expression in E. coli” value is listed as “soluble”.

Take “MMNKKEARTLIKERRMNLSKEYIDVASDKIFEKLLQNEDFKNVKTVMSYMDFKNEVKTDRINTFIKNSGKILVLPKVVDKETMIVIEDKNQYIVSPFGNKEPDGEEYKGSIDVIITPGVAFDRDKNRVGFGRGYYDRFFVKQPNAKKIAIAFEKQIIDEGIETDKYDKKVDILITEDEIIKLEHHHHHH”: the “soluble on expression in E. coli” value is recorded as “soluble”.

On to “ALIDVVVVCDESNSIYPWDAVKNFLEKFVQGLDIGPTKTQVGLIQYANNPRVVFNLNTYKTKEEMIVATSQTSQYGGDLTNTFGAIQYARKYAYSAASGGRRSATKVMVVVTDGESHDGSMLKAVIDQCNHDNILRFGIAVLGYLNRNALDTKNLIKEIKAIASIPTERYFFNVSDEAALLEKAG”, for which the “soluble on expression in E. coli” value is reported as “soluble”.

As for “MTVERLENGVIVQRNTNEIEISITLDTVHGKLEGSTGVNFFDHLLNTFCHYSGLGLRVSTCESKDGILHHLIEDFGISLGLAFRELFDYTKVRRFGEATVPMNEALVGCYVDLSGRPFFQKNFEFSVEKIEDMPVEGFEEFMCGFVNHARITVHFFKFFGKNDHHISESAMKSFGLAIAKALESSEKKTTKGVID”, the “soluble on expression in E. coli” value is listed as “soluble”.

As for “MGSDKIHHHHHHMYPAKHYQTNEENITHYHEIIESNPLATLLFSHESEIDVSHIPCHFSLKTSNTNTQQLERSTLTAHVSNHHPLAKVLQRSSTVALQLVFHGEDAYISPRDVSKQHSHAQSVPTWNYAKVHVSGIAHEVKDSDDKYQYMAASTAYFEQRRSTNNIDKPWSIEEAPAIAIKKMLNAITIFSINITHLEGRFKLSQNKSKAVQKEIAEQLTTRGVEELGQLMLAL”, the “soluble on expression in E. coli” value is reported as “not soluble”.

As for “MSKRCASDRDDKDSEPVKKPRFSIANILDEVEDEEDVEVDVEDVDDVDLSSIPSKSPERSRGRPKIGLKMKEGNLPIECKLEGSELWAKFFDLGTEMIITKSGRRMFPTVKVSFTNVILDALYYIFLDVVPVDSKRYRYIYNKSAWLTAGKAEPVPKNRYYLHPDSPFTGDQLLKHVISFEKTKLTNNEVDKTGHLILNSMHKYQPRIHIVQRQKANPLDPNKVVMSEEKHCTYTFPETQFMAVTAYQNQLITKLKIEKNPFAKGFRDPTGRSPDEMERSPGDMMLSNFYHSSALQQAMFQQCLSKTLQLNPSIMMLYQNVFPTGNSLPAAPTVPGNPAEISIKSE”, the “soluble on expression in E. coli” value was “soluble”.

For “GPGSMTYCPITRKELERYLPNFDPLLDPQIGEWVLVTPERRFAILGPLLQFVQEHAIKPIYPFLDNSEPSSAPVTTFNFCKEDSPKTLGDPSKVFPTLSEVWRRYRRRRFHISGMDEDGIGEEEENDDTILYLNPRALLLTPCAPAVFGGSDFIEGLDREGERVVFVNWKTGETRTDSGVLKPAPIPAWAEDVAEKAAMEWESWKKCVIPPSSTRE”, the “soluble on expression in E. coli” value is recorded as “soluble”.

On to “MDAELFPRSRAQVAPDAVHVPDWADAGRQRRFLAACRDWARPPAGLRTVHTPGGGTMTSRQVCLGWHWYPYGYARTVVDGDGAPVKPLPDWLAELGRDAVSDALGPQAVPPVPYDIALINFYGADARMGMHRDSDEKSGAPVVSLSVGDTCVFRFGNARTRTRPYTDVELRSGDLFVFGGASRLAYHGVPRVYADTAPPELGLVGRLNITLRVSGFQDPSGE”, for which the “soluble on expression in E. coli” value is on record as “not soluble”.

With “MYVLIGGAGLIGQQLARQVLDQGHTVAVIDQDPQVCKMVRDRLGAMAFEGSAVNTDILLEAGICRADAVAAVLRQDALNLALVTLACHYGVSRIISRISQQDFIEPMRLAGAHHIISTVDLVVSTMVNAIECPQVESMLHFEQGQIEVFKLTLDSQSPVIGRSVAAIAQDRNFPSSSLIIGYQSHPQADLVIPSGNTVLEANATVLLATKPGLVQSLVNFLMPSLFSPLQPAGVLHQLEHHHHHH”, the “soluble on expression in E. coli” value is “soluble”.

On to “MEIFEKIRSLRKNHNLSQEEIADKINLSVSGYRKIENGKSRINHKRLEQIAEALEVSPLDLIPNSWRHGSSVYQVGKNGFYGDSSRAIEIELLKQQIKQEQLIKAKDETIEDKNRLISRLEEMLKILNT”, for which the “soluble on expression in E. coli” value is recorded as “not soluble”.

On to “HENPEGIIRIYASTTPGEHILPSIIKEYKSSYKNVDFEITITDSERCFKALDEGLADIAAVGYLKNKNYEYTIIGKDRLVLIVPPNHPLAEKGTAKLEDILKEDYIDREEGSGTREAFIKALNDKGYSIMDLNVVMRLGSHSAVI”, for which the “soluble on expression in E. coli” value was “not soluble”.

On to “MGRSSRKDEILQAALACFSEHGVDATTIEMIRDRSGASIGSLYHHFGNKERIHGELYLAGIGQYAALLEAGFARARSAEETVRLLVTSYIDWVVANPDWARFILHSRGRVEAGELGERLRADNQAHFARIHAALAGYRAEGLFREMPDDCFASVVIGPAHDLARQWLAGRTRVALADCRELLAQVAWDSVRAA”, for which the “soluble on expression in E. coli” value is given as “not soluble”.

As for “MGSDKIHHHHHHMKIAIEAQRIFRKEKHGMDYVALETIRELQKIDQQNEYFILVSPGDDVCLQESANMHIVTVNWPSYPLWEQIGLPLALKKIKPDLLHCTSNTAPVHGNIPLVLTLHDIIFLEKKQGKNQSMYQRLGRFYRKIIVPQILTKCKRIITVSHFECNRISHFLHIDKQLLVAVYNGYSQHFIPIRNAQAITARYIKNHPYLFFLGNTDPKKNTARVLQAYGIYLKKSSQPLPLLIADLKEEIIDEYLNREGLQEIKKMLYHPGYIPNTELPAVYSGASVFIYTSLRESFGIPILEAMACGTPVITSTTSAMPEIAGPEGILVNPFEPEEIASALLHLEENAEFYQSQTAYGLERVRRFSWENTAREILNIYKEILA”, the “soluble on expression in E. coli” value was “not soluble”.

Regarding “MASFTSPDIDEKLAILHREMASLRVECDRLLNKHLIVEHTLSQSCSGWPNGAADTSSAYNTGGESCRSVSVTPDGVFIPTTSNSQMIQSQPSPRVLRRTVKMASPAVQRRLVPQNLPTSSSSRPPTVLLPHDSPEQPSRPIHRMHQELPIPEDVVSMVSSNKTQRSIIRAPSAVFGALKGSSLRKLSISRNIQMTTKVNKEESDRKEKEAEEYAKRFRIPSYSVVLKEEKRKSSFRIPVPHYFRSSKAKSKVYQVDAPDEEIEEVIDEEKMAAKTDLGDTTVHYKWKVKRRCDGSRYIVKRPIRSQILKKREAQVYRERAPISTDDDAMSELKLGRYHTKEERKRILERENTKKMLKLQQKMMEKAHPSEQVIYQMSQQKLARQKDAMVMDEFVTTREVLSSRTRPDGIHGVVSVTTV”, the “soluble on expression in E. coli” value is listed as “not soluble”.

In the case of “MKSIIIAAPHSGSGKTTITVGIMECFRRRGLTVAPFKVGPDFIDPGYHRLVTGLPSANLDGWICPPEFVRASFAHHALNADMAIIEGVMGLFDGFGGIADEGSTAQVARLTGAPVILVVDARGLARSAAAILKGFAEFDPSVRVAGVIFNNVGSDSHERILREAVGQSLPELKVFGCIPRDDGLHIPARHLGLLTAEEHPLSGEFLDHLVEVIRDRVDLGLLWGAANPLGAPVPRAEPIPCQTLGGSVRLAVARDEAFCFVYEDNLCLLRRAGAEIVTFSPLRDERLPEDVAGVYLPGGYPEVFADALAANTGMKESLARAVNEGMPVYAECGGFIYLTRGVTDSAGEPESLHEFVGIFPVTTRMLPRRKALGYREVELAADTIIGPAGTLARGHEFHYSEMEEMPADVERAYRVRRGPVDLGMEGYRYRNCLASYVHLHFGSNPELAAAFVARCRSFVTRSRVLEHHHHHH”, the “soluble on expression in E. coli” value is given as “not soluble”.

In the case of “MAESYEEWKSFALKLDEETGAQEWKFDNSSPYFDAELISYRYTLLKRYRQQHRTLDLIYLLKEGLTYDIANIGHPMLFAATHVGTKKLIEDYIEEVSQSLAYIASSECITFQRKEKIEFFENCEKAYGQPALMFSGGATLGLFHTGVCKALIEQDLMPKVLSGSSAGAIMTGMLGISASEDIQNLLNGEQFFSDAFHFRKLRELIKGNGGIADVHYLKKFLIENLGDLTFEEAFKKSGLNINVAVAPYDATENPRIMNAIMTPNVLVWSAVLASCAVPVLFPPVRLTSKRYDGEHTPYMANTKWVDGSVRSDFPQERMARLYNLNYTIASQVNPHVVPFMQDDARRFRKDVLSWPERILRRQGKVLSMGLMDFTRQRLGAISPVRRLLDHGYGVVGQRYYGDVNIIAKYSLKHYAYTLQNPRPHLFKRLQREGERATWPKISSIETHARIGKTIQHCLEVLRFEEKKQQPESYYAEALEHHHHHH”, the “soluble on expression in E. coli” value was “soluble”.

In the case of “GHMPFEWVKQYDYEDIIYETYNGIAKITINRPEVHNAFRPKTVNEMIDAFTKARDDSNIGVIILTGAGGKAFCSGGDQKVRGHGGYVGEDEIPRLNVLDLQRLIRVIPKPVIAMVAGYAIGGGHVLHVVCDLTIAADNAIFGQTGPKVGSFDGGYGAGYLARIVGHKKAREIWYLCRQYTAQEALEMGLVNKVVPLEQLEEETVKWAQEILEKSPTAIRFLKAAFNADSDGLAGIQQLAGDATLLFYTTEEAKEGMRAFKEKRKPDFSQFPRFP”, the “soluble on expression in E. coli” value is on record as “soluble”.

On to “VTSPNSTAPTPSLITAPPPSTTEDLRLALRAATLYYLDGMTQAEVATRLGVSRPTAGRLVARARAQGLVRIEVQAPAHLRDALRSDEERALEEKYGLVEAVVVADSVDAAGAIDDHNSFAGVGRAAASLLVRRIREGDTLGFTWGPETVAVAQGLPSGAATCASVVQLDGSVSAINYQTGTEYVLGRCAEQLQANTVRLPVPLYADASTVVSMRGDSVISKALEAGRTAEMMMFGTGAVSTSTTLFEGSFIDTDMLSVLTGLGAVGEVGGRFYRLDGTEVAGPLDERAMSVPLDDIRACEGSILVTGGVAKHQAALGALHGGLAKMLVCDIECARWLLDQ”, for which the “soluble on expression in E. coli” value is recorded as “not soluble”.

“MKKPNHSGSGQIRIIGGQWRGRKLPVPDSPGLRPTTDRVRETLFNWLAPVIVDAQCLDCFAGSGALGLEALSRYAAGATLIEMDRVVSQQLIKNLATLKAGNARVVNSNAMSFLAQKGTPHNIVFVDPPFRRGLLEETINLLEDNGWLADEALIYVESEVENGLPTVPANWSLHREKVAGQVAYRLYQHEAQGESDAD”: the “soluble on expression in E. coli” value is listed as “not soluble”.
